Assay results taken from patent publication US20260008864A1.

Assays:
[1] = target: CD3 on cells (PBMC, primary patient samples); assay: flow cytometry on a primary patient sample, control panel: CD3-V450 staining is kept (reference for the bionic panel)
[2] = target: CD3 on cells (PBMC, primary patient samples); assay: flow cytometry, PBMC treated with C-IgG, dot plot CD38-PE against CD3-V450; reference panel for the treated samples; unstained panel: CD3 0%

% CD3-V450 stained cells (control panel) [1]: 25%
CD3 (% of PBMC in the CD3-V450 positive, CD38-PE negative quadrant) [2]: 25%
Substance: non-binding IgG antibody
